Assay results from patent publication US11180770B2, “HPPD variants and methods of use” (BASF Agricultural Solutions Seed US LLC, priority 2017, dated 2021).
Where a chain is given by its changes, count along the chain named.

B1: SEQ ID NO:1 (protein, listed as Pseudomonas fluorescens)
chain: MADLYENPMGLMGFEFIEFASPTPGTLEPIFEIMGFTKVATHRSKNVHLYRQGEINLILNNEPNSIASYFAAEHGPSVCGMAFRVKDSQKAYNRALELGAQPIHIDTGPMELNLPAIKGIGGAPLYLIDRFGEGSSIYDIDFVYLEGVERNPVGAGLKVIDHLTHNVYRGRMVYWANFYEKLFNFREARYFDIKGEYTGLTSKAMSAPDGMIRIPLNEESSKGAGQIEEFLMQFNGEGIQHVAFLTDDLVKTWDALKKIGMRFMTAPPDTYYEMLEGRLPDHGEPVDQLQARGILLDGSSVEGDKRLLLQIFSETLMGPVFFEFIQRKGDDGFGEGNFKALFESIERDQVRRGVLTAD
modifications: 4-hydroxyphenylpyruvate dioxygenase (HPPD; Pseudomonas fluorescens) (1)..(358)
B2: SEQ ID NO: 69: mutant PfHPPD: 268A 270S 315R 335P 336H 337S 340V 344Q 345M (protein)
chain: B1 chain with P268A, T270S, T315R, E335P, G336H, N337S, A340V, S344Q, I345M
modifications: mutant HPPD polypeptide
notes: mutant PfHPPD: 268A 270S 315R 335P 336H 337S 340V 344Q 345M
B3: SEQ ID NO: 70: mutant PfHPPD: 213K 268A 270S 315Q 335P 336H 337S 340V 344Q 345M (protein)
chain: B1 chain with R213K, P268A, T270S, T315Q, E335P, G336H, N337S, A340V, S344Q, I345M
modifications: mutant HPPD polypeptide
notes: mutant PfHPPD: 213K 268A 270S 315Q 335P 336H 337S 340V 344Q 345M
B4: SEQ ID NO: 68: mutant PfHPPD: 268A 270S 315Q 335P 336H 337S 340V 344Q 345M (protein)
chain: B1 chain with P268A, T270S, T315Q, E335P, G336H, N337S, A340V, S344Q, I345M
modifications: mutant HPPD polypeptide
notes: mutant PfHPPD: 268A 270S 315Q 335P 336H 337S 340V 344Q 345M

How the values were obtained:
[1] = test system: soybean shoots; experiment: selection of soybean shoots with tembotrione (greening/bleaching); type: in vivo; conditions: wild-type soybean shoots treated with tembotrione as selection marker
Text: Soybean transformation was achieved by using methods well known in the art, such as the one described using the Agrobacterium tumefaciens mediated transformation soybean half-seed explants using essentially the method described by Paz et al. (2006), Plant cell Rep. 25:206. Transformants were identified by using the HPPD inhibitor herbicide “tembotrione” as selection marker. The appearance of green shoots was observed, and documented as an indicator of tolerance to the HPPD inhibitor herbicide tembotrione.

[2] = test system: HPPD polypeptides; experiment: coupled HPPD activity assay: turnover and residual turnover in crude extracts; type: biochemical, Pseudomonas fluorescens; conditions: for turnover / residual turnover in the presence of Cmpd. 1 compared with a reference HPPD polypeptide, in words: comparison with the reference or parent polypeptide
[3] = test system: HPPD polypeptides; experiment: as above; type: biochemical, Pseudomonas fluorescens; conditions: FIG. 2
[4] = test system: T0 soybean plants; experiment: greenhouse spray test, leaf area damage score; type: in vivo; conditions: transgenic soybean T0 events, five days after Cmpd. 1 at 300 g AI/ha; for leaf area damage score, 25th percentile: scale 0 (no damage) to 100 (complete bleaching); for leaf area damage score, 75th percentile / leaf area damage score, 90th percentile / leaf area damage score, Median: scale 0-100
Text: Tolerant green shoots were transferred to rooting media or grafted. Rooted plantlets were transferred to the greenhouse after an acclimation period. Plants containing the transgene were then sprayed with HPPD inhibitor herbicides, as for example with mesotrione at a rate of 300-600 g AI/ha, or with Cmpd. 1 (2-chloro-3-(methylsulfanyl)-N-(1-methyl-1H-tetrazol-5-yl)-4-(trifluoromethyl)-benzamide) at a rate of 150 g-300 g AI/ha supplemented with ammonium sulfate and methyl ester rapeseed oil. Five to ten days after the application, the symptoms due to the application of the herbicide were evaluated and compared to the symptoms observed on wild-type plants under the same conditions. For example, T0 soybean plants having a “plant expression cassette”, which includes an HPPD inhibitor tolerant HPPD polypeptide of the present invention, were tested towards the tolerance of Cmpd. 1. Prior greenhouse trials with the transgenic plants, soybean transformants were routinely analyzed for the expression and presence of the transgenes using the ELISA protein detection method (see detailed description under item D and H). Only plants recovering in the selection media and having a detectable HPPD transgene protein expression were used for the herbicide tolerance analysis. A DeVries Tracker Sprayer was calibrated prior to each spraying. The chemical formulation used for Cmpd. 1 was supplemented with ammonium sulfate and methylated rape seed oil. Spray tests were conducted with a concentration, which equals to 300 grams AI per hectare (300 g AI/ha).
In greenhouse trials, independent T0 soybean events containing an exemplary mutant HPPD polypeptide were sprayed with the HPPD inhibitor herbicide Cmpd. 1 (2-chloro-3-(methylsulfanyl)-N-(1-methyl-1H-tetrazol-5-yl)-4-(trifluoromethyl)benzamide) at the rate of 300 grams AI/ha, supplemented with ammonium sulfate and methyl ester rapeseed oil. Five days after the application, the leaf damaged area due to the HPPD inhibitor herbicide is scored in a scale from 0 (no damage) to 100 (complete bleaching). Under those conditions, the wild-type plants were completely bleached and their damage scores were in the 95-100 range.
Table 5 presents the distribution of the HPPD inhibitor herbicide damage score data as percentile for exemplary mutant HPPD inhibitor herbicide tolerant polypeptides (SEQ ID NOs). The percentiles normalize ranks of the damage score from an individual plant in a population. […] The median is the 50th percentile. Half the values had higher damage scores; half had lower damage scores. The value of the 75th and 90th percentile is the damage score where 75% and 90% of the soybean events had lower damage scores, respectively. The difference between the 75th and 25th percentile is called the interquartile range and a marker to quantify scattering in the population. All constructs had only one single cassette insertion in the soybean genome.

Molecule | effect on wild-type soybean shoots [1] | Residual turnover ([2]; presence of 100 μM Cmpd. 1, high substrate concentration, changes in absorbance (OD) at 320 nm) | mode of inhibition by HPPD inhibitor herbicides (time-course of inhibition) [3] | turnover / residual turnover in the presence of Cmpd. 1 compared with a reference HPPD polypeptide, in words [2] | leaf area damage score, 25th percentile [4] | leaf area damage score, 75th percentile [4] | leaf area damage score, 90th percentile [4] | leaf area damage score, Median [4]
CS(=O)(=O)c1ccc(C(=O)C2C(=O)CCCC2=O)c(Cl)c1COCC(F)(F)F [tembotrione, 2-[2-chloro-4-(methylsulfonyl)-3-[(2,2,2,-trifluoroethoxy)methyl]benzoyl]-1,3-cyclohexanedione] | entirely bleached | – | – | – | – | – | – | –
B1 | – | 0.021 | slow and tight binding inhibitor | – | – | – | – | –
B2 | – | – | – | increase significantly the turnover and the residual turnover | 20.0 | 25.0 | 42.0 | 20.0
B3 | – | – | – | increase significantly the turnover and the residual turnover | 10.0 | 25.0 | 35.0 | 15.0
B4 | – | – | – | increase significantly the turnover and the residual turnover | 5.0 | 16.3 | 20.0 | 10.0
